From publication PMC9951844 (Nature Communications, 2023)

How the values were obtained:
[1] = target: SARS-CoV-2 Lambda (C.37) RBD (SARS-CoV-2 Lambda (C.37), strain)
[2] = target: SARS-CoV-2 Kappa (B.1.617.1) spike ECD (SARS-CoV-2 Kappa (B.1.617.1), strain)
[3] = target: SARS-CoV-2 Delta (B.1.617.2) S1 (SARS-CoV-2 Delta (B.1.617.2), strain)
[4] = target: SARS-CoV-2 Omicron BA.1 (B.1.1.529) RBD (SARS-CoV-2 Omicron BA.1 (B.1.1.529), strain)
[5] = target: SARS-CoV-2 Beta (B.1.351) S1 (SARS-CoV-2 Beta (B.1.351), strain)
[6] = target: SARS-CoV-2 Gamma (P.1) S1 (SARS-CoV-2 Gamma (P.1), strain)
SARS-CoV-2 wildtype S1 = SARS-CoV-2 wildtype S1 (SARS-CoV-2 wildtype (Wuhan), UniProt P0DTC2)

Measured: binding result

B1: YB9-102 (antibody, V domains shown)
VH: EVQLLESGGGLVQPGGSLRLSCTASGFTFRYYAMTWVRQAPGKGLEWVSVIIGSGGDTYYADSVKGRFTISRDNSKNTLYLQMDSLRAEDTAVYYCATGELELGTCYFDYWGQGTLVTVSS
VL: DIQMTQSPSSVSASVGDRVTITCRASQGISSWLAWYQQKPGEAPKLLISAASSLQSGVPSRFSGSGSETDFTLTISSVQPEDFATYYCQQANSFPQAFGQGTKVEIK
binds: all assays above

B2: YB12-203 (antibody, V domains shown)
VH: QIQLQQSGPGLVEPSQTLSLTCAISGDSVSSISAAWNWIRQSPSRGLEWLGRTYYRSKWYNDYAVSVKSRITINPDTSKNQFSLHLNSVTPEDTAVYYCARDHLRWDIVATSLEAFDIWGQGTMVTVSS
VL: DIVMTQSPDSLAVSLGERATINCKSSQSVLFSSNNKNSLAWYQQKPGQPPKLLIYWASTRESGVPDRFSGSGSGTDFTLTISSLQAEDVAVYYCQQYHSSLLYTFGQGTKLEIK
not listed: [4] | [6]
binds: all other assays above

B3: YB12-266 (antibody, V domains shown)
VH: EVQLVESGGGLIQPGGSLRLSCAASGLTVSSNYMSWVRQAPGKGLEWVSLIYSGGTTSYADSVKGRFTISRDNSKNTLYLQMNSLRVEDTAVYYCARDLVVYGMDVWGQGTTVTVSS
VL: AIQLTQSPSSLSASVGDRVTITCRASQGISSYLAWYQQKPGKAPKLLIYAASTLQSGVPSRFSGSGSGTDFTLTISSLQPEDFATYYCQLLNSYPLTFGGGTKVEIK
not listed: [4]
binds: all other assays above

B4: YB13-221 (antibody, V domains shown)
VH: EVQLVESGGGLVQPGGSLRLSCAASGFIVSSRYMSWVRQAPGKGLEWVSVIYSDGRSYYADSVKGRFIISRDNFKNALYLQMNSLRAEDTAVYYCARDSPYRTGWFLGQSDAFDIWGQGTMVTVSS
VL: DIQMTQSPSTLSASVGDRVTITCRASQSISSWLAWYQQKPGKAPNLLIYKASSLESGVPSRFSASGSGTEFTLTISSLQPDDFATYYCQQYNSYPPSFGQGTKVEIK
not listed: [4]
binds: all other assays above

B5: YB13-275 (antibody, V domains shown)
V domain 1: QITLKESGPRLVKPTQTLTLTCTFSGFSLATAGMSVGWIRQPPGKALEWLALIYWDDDDRYSPSLKSRLTITKDTSRNQVVLTMTNMDPVDTATYYCIHPRFYSDPSGYYFIWGQGTMVTVSS
V domain 2: SYELTQPPSVSVSPGQTARITCSGDALAKQYAYWYQQKPGQAPVQVMYKDGERPSGIPERFSGSKSGTTVTLTISAVQAEDEADYFCQSADNSGFYVFGTGTQVTVL
not listed: [4]
binds: all other assays above

B6: YB13-291 (antibody, V domains shown)
V domain 1: QITLKESGPTLVKPTQTLTLTCTFSGFSLNTAGVAVGWIRQPPGKAREWLALIYWDDDQRYSPSLESRLTITKDTSKNLVVLTMTNMDPVDTATYYCAHPRYFSDNSAYYWIWGQGTMVTVSS
V domain 2: SYDLTQPPSVSVSPGQTATISCSGDALPKQYVYWYQQKPGQAPVLVIYKDSERPSGIPERFSGSNSGTTVTLTISGVQAEDEAEYYCQSADSSGFYVFGSGTQVTVL
not listed: [4]
binds: all other assays above

B7: YB12-187 (antibody, V domains shown)
VH: EVQLVESGGGLVKPGGSLRLSCAASGFIFSTYSMNWVRQAPGKGLEWVSSISSFSTYIYYADSVKGRFTISRDNAKNSLYLQMNSLRAEDTAVYYCASGQMYSGSYPSGDYFDYWGQGTLVTVSS
VL: LSVLTQPPSVSGAPGQRVTISCTGSSSNIGADYDVHWYQQLPGTAPKLLIYGNTNRPSGVPDRFSGSKSGTSASLAITGLQAEDEAHYYCQSYDTSLSGVVFGGGTKLTVL
binds: all assays above

B8: YB9-112 (antibody, V domains shown)
VH: EVRLVESGGGLIQPGGSLRLSCAASGLIVSSNYMTWVRQAPGKGLEWVSVIYSGGSTFYADSVKGRFTISRDNSKNTLFLQMSSLRAEDTAIYYCARDLDYYGMDVWGQGTTVTVSS
VL: DIQLTQSPSFLSASVGDRVTITCRASQGVASYLAWYQQKPGKAPKLLIYAASTLQSGVPSRFSGSGSGTEFTLTISSLQPEDFATYYCQHLNSYPPITFGQGTRLEIK
not listed: [4]
binds: all other assays above

B9: YB12-195 (antibody, V domains shown)
VH: EVQLVESGGGLIQPGGSLRLSCAASGFIVSSNYMNWVRQAPGKGLEWVSVIYSGGSTFYADSVKGRFTISRDNSKNTLYLQMNSLRAEDTAVYYCARDLQRDGMDVWGQGTTVTVSS
VL: SYVLTQPPSVSVAPGKTARITCGGNNIGSKNVHWYQQKPGQAPVLVIYYDSDRPSGIPERFSGSNSGNTATLTVSRVEAGDEADYYCQLWDSSSDHVVFGGGTKLTVL
not listed: [4] | [5]
binds: all other assays above

B10: YB12-202 (antibody, V domains shown)
VH: EVQLVQSGAEVKKPGESLKISCKGSGYSFISYWIVWVRQMPGKGLEWMGIIYPGDSDTRYSPSFHGQVTISADKSFSTAYLQWSSLKASDTAMYYCATTPHLYGGADYWGQGTLVTVSS
VL: not shown
binds: all assays above

B11: YB13-209 (antibody, V domains shown)
VH: EVQLVESGGGLVKPGGSLKLSCAASGFSFVNAWMSWVRQAPGKGLEWVGRIKDKIDGGTTDYAAPVKGRFSISRDDSKNMLYLQMTSLKTEDTAVYYCTTGYNWHYGIEYWGQGTLVTVSS
VL: DIQMTQSPSSLSASVGDRVTVTCRASQSINSYLNWYQQKPGKAPKLLIYAASSLQSGVPSRFSGSGSGTDFTLTISSLQAEDFATYYCQQSYSTPDTFGQGTKLEIK
binds: all assays above
